# In publication PMC1890005 (The Journal of biological chemistry, 2006):
# T1: σ^C4 domain of M. tuberculosis σ^C (M. tuberculosis)
# T1 chain: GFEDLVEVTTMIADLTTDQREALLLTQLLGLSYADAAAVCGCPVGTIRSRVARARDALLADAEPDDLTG
# B1: σ^C2 domain of M. tuberculosis σ^C (domain or fragment)
# chain: MTATASDDEAVTALALSAAKGNGRALEAFIKATQQDVWRFVAYLSDVGSADDLTQETFLRAIGAIPRFSARSSARTWLLAIARHVVADHIRHVRSRPRTTRGARPEHLIDGD
# Molecular target: T1, σ^C4 domain of M. tuberculosis σ^C
# Assay: SPR
binder,measurement,value
B1,Kd,1810 ± 30 nM
